Measured values from publication PMC6353898 (2019).

Target: EGFR recombinant human protein (human, UniProt P00533 25-645)
Assay: SPR

Kd: 7.2 µM
Binder: AEYDFYGPGNEGSW (designed binder) [Pep24]
